Assays:
[1] = biological target: apoa1_human APOA1 (UniProt P02647)
[2] = biological target: apoa1_human APOA1 (UniProt P02647); remark: listed apart in the source

Chain of apoa1_human APOA1 (P02647 whole entry): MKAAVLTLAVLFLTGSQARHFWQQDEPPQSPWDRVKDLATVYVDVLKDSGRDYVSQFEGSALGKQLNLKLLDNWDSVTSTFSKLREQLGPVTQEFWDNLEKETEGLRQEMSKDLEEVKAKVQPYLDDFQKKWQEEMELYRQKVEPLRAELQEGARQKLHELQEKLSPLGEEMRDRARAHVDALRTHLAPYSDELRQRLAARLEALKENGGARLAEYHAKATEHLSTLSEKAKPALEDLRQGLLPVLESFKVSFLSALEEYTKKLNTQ

effect of a mutation on the interaction [1]: disrupting interaction strength
effect of a mutation on the interaction [2]: disrupting interaction strength
Substance: Phospholipid-transporting ATPase ABCA1 (Homo sapiens), O95477 K939M;K1952M
